In patent US20130022606A1:

biological target: rat prolactin receptor on Nb2 rat lymphoma cells (rat) (UniProt P05710); experiment: FACS on rat lymphoma cell line Nb2, IgG1

EC50 [nM]	Binder
1.2	001-E06 (IgG1) (antibody, V domains shown) VH: QVELLESGGGLVQPGGSLRLSCAASGFTFSSYWMSWVRQAPGKGLEWVSSVSDTGTDTHYADSVKGRFTISRDNSKNTLYLQMNSLRAEDTAVYYCAKTPLAYSSGWYYFDYWGQGTLVTVSS VL: DIVLTQPPSASGTPGQRVTISCSGSSSNIGSNTVNWYQQLPGTAPKLLIYRNYQRPSGVPDRFSGSKSGTSASLAISGLRSEDEADYYCQSYDSSLSGSVFGGGTKLTVLG
0.9	HE06.642 (antibody, V domains shown) VH: EVQLVESGGGLVQPGGSLRLSCAVSGFTFSSYGMSWVRQAPGKGLEWVATVSSGGTYTYYPDSVKGRFTISRDNSKNTLYLQMNSLRAEDTAVYYCARHRGNYYATYYYAMDYWGQGTLVTVSS VL: DIVLTQSPDSLAVSLGERATINCKASKSVSTSGYTYMHWYQQKPGQPPKLLIYLASNRESGVPDRFSGSGSGTDFTLTISPVQAEDVATYYCQHSGELPPSFGQGTKLEIKR
1.1	XHA06.642 (antibody, V domains shown) VH: EVQLVESGGDLVKPGGSLKLSCAVSGFTFSSYGMSWVRQTPDKRLEWVATVSSGGTYTYYPDSVKGRFTISRDNAKNTLYLQMSSLKSEDSAMYYCARHRGNYYATYYYAMDYWGQGTSVTVSS VL: DIVLTQSPASLAVSLGQGATISCRASKSVSTSGYTYMHWYQQKPGQPPKLLIYLASNLESGVPARFSGSGSGTDFTLNIHPVEEEDAATYYCQHSGELPPSFGGGTKLEIKR
